Details: Pseudomonas aeruginosa (strain ATCC 15692 / DSM 22644 / CIP 104116 / JCM 14847 / LMG 12228 / 1C / PRS 101 / PAO1); pH 7; 25 °C; GdnHCl; Fluorescence, CD; Tris-HCl 100 mM; reversible: Yes; whole UniProt chain shown

B1: Azurin wild type, P00282 (protein)
chain: MLRKLAAVSLLSLLSAPLLAAECSVDIQGNDQMQFNTNAITVDKSCKQFTVNLSHPGNLPKNVMGHNWVLSTAADMQGVVTDGMASGLDKDYLKPDDSRVIAHTKLIGSGEKDSVTFDVSKLKEGEQYMFFCTFPGHSALMKGTLTLK
denaturant m value: 4.06 kcal/mol/M | unfolding free energy: 12.9 kcal/mol
